For four sequences, Kd results are on record in article PMC10178974.

By Kd is commonly meant a measure of binding affinity in units of concentration. Read a low Kd as higher affinity.

Holding throughout (test): BLI
Series [1] concerns Respiratory syncytial virus virions (surface protein not named) (Respiratory syncytial virus A2). As to conditions: BLI: PBS pH 7.4 (8 mM Na2HPO4, 1.5 mM KH2PO4, 140 mM NaCl, 10 mM KCl), 0.01% Tween-20, 0.1 mg/mL BSA; biotin-aptamer on streptavidin sensor; virus as analyte …. Background: Biolayer interferometry detects binding as a change in optical thickness at a sensor tip.
Series [2] concerns Influenza A virus virions (hemagglutinin is the stated target of RHA0385) (Influenza A virus H7N1). Conditions: BLI: PBS pH 7.4 ([…]; temperature not stated.
In series [3] the target is SARS-CoV-2 virions (S protein RBD is the stated target of RBD-1C) (SARS-CoV-2) (UniProt P0DTC2). Conditions: BLI: PBS pH 7.4 ([…]; temperature not stated.
In series [4] the test system is Adenovirus type 5 virions (surface protein not named) (Human adenovirus 5?). Conditions: BLI: PBS pH 7.4 (8 mM Na2HPO4, 1.5 mM KH2PO4, 140 mM NaCl, 10 mM KCl), 0.01% Tween-20, 0.1 mg/mL BSA; biotin-aptamer on streptavidin sensor; virus as analyte ….

As for “AGTGCGGTGAGCCGTCGGACATACAAATAC [Biotin-H8]”, the Kd in series [1] came out at 0.031 pM; in series [2], 3.5 pM.

For “TTGGGGTTATTTTGGGAGGGCGGGGGTT [Biotin-RHA0386 (RHA0385 in text)]”, in series [2], the dissociation constant (Kd) was 0.021 pM.

In the case of “GTGCCAGCTATGCCATTGGCGGGTCGTCCAATTCGAGAGGTCCCCTAGCGTCTATCTCTGCTGC [Biotin-ADV-20]”, the Kd in series [1] came to 0.38 pM; in series [2] it was 2.6 pM; in series [3], 50 pM; in series [4], 0.011 pM.

In series [3], “CAGCACCGACCTTGTGCTTTGGGAGTGCTGGTCCAAGGGCGTTAATGGACA [Biotin-RBD-1C]” registered a dissociation constant (Kd) of 0.071 pM.
